Assay results: PMC10823522, “Antibodies Raised Against an Aβ Oligomer Mimic Recognize Pathological Features in Alzheimer’s Disease and Associated Amyloid-Disease Brain Tissue” (ACS Central Science, 2023)

Tests used:
[1] = biological target: 2AT-L, covalently stabilized triangular trimer composed of three Aβ17-36 β-hairpin peptides (2AM-LCC); assay: SDS-PAGE; silver stained; Tris buffer at pH 6.8 with 2% (w/v) SDS; 5.0, 2.5, 1.25 and 0.6 μg of 2AT-L or 2AM-L in each lane
[2] = biological target: 2AT-L, covalently stabilized triangular trimer composed of three Aβ17-36 β-hairpin peptides (2AM-LCC); assay: crystal structure; X-ray crystallographic structure of 2AT-L at 1.8 Å; assembly seen in the crystal lattice
[3] = ThT aggregation assay of Aβ42; type: physicochemical; conditions: 6.25 μM Aβ42 in PBS pH 7.4, 10 μM ThT, 25 °C, quiescent; ex 440 nm, em 485 nm
Protocol: Figure 3 In vitro characterization of pAb2AT-L with 2AT-L and 2AM-L and Aβ42. (A) Indirect ELISA of pAb2AT-L against 2AT-L, 2AM-L, and BSA. (B) Western blot analysis of pAb2AT-L against a concentration gradient of 2AT-L. SDS-PAGE was performed on a 16.5% Tris-Tricine gel (Bio-Rad); 10 μL was loaded in each lane. (C) Indirect ELISA of pAb2AT-L and 6E10 against Aβ42. (D and E) Western blot analysis of pAb2AT-L (D) and 6E10 (E) against a concentration gradient of Aβ42. SDS-PAGE was performed on a 16.5% Tris-Tricine gel (Bio-Rad); 10 μL was loaded in each lane. (F and G) Dot blot analysis of pAb2AT-L (F) and 4G8 (G) against 6.25 μM Aβ42 aggregated over time in PBS. A 1 μL portion of the Aβ42 solution was spotted in triplicate on 0.2 μm nitrocellulose membranes every 30 min for 5 h and then at 96 h. (H and I) Average integrated spot density from the dot blots in F and G. Integrated density for each spot was determined using ImageJ. (J and K) Change in integrated spot density from the 0-h time point. (L) ThT aggregation assay of 6.25 μM Aβ42. The ThT assay was performed at 25 °C under quiescent conditions in PBS (10 mM Na2HPO4, 1.8 mM KH2PO4, 137 mM NaCl, 2.7 mM KCl) at pH 7.4 containing 10 μM ThT. ThT fluorescence was monitored at 440 nm excitation and 485 nm emission. […]

SDS-PAGE = type: physicochemical; conditions: Aβ42, 16.5% Tris-Tricine gel, 0.25–0.016 mM, 10 μL per lane
cells = conditions: cited from earlier work
From the text: Like oligomers of full-length Aβ, 2AT-L is toxic toward cells in culture, eliciting toxicity by interacting with the cells and promoting membrane disruption and release of LDH, depleting ATP, and activating caspase-3/7-mediated apoptosis.

[4] = system: Aβ protofibrils in brain and cerebrospinal fluid; conditions: Alzheimer's disease transgenic mice; cited from earlier work
From the text: Antibodies that target monomeric, oligomeric, and fibrillar forms of the β-amyloid peptide (Aβ) are valuable tools for Alzheimer’s disease research and have emerged as Alzheimer’s disease therapies.[4],[5] […] These antibodies act by binding Aβ aggregates and facilitating their clearance from the brain, mitigating both the direct and downstream damaging eff ...

Aβ and its aggregates = conditions: cited from earlier work
From the text: The 6E10 and 4G8 monoclonal antibodies—among the most extensively used Aβ antibodies in Alzheimer’s disease research—were generated by immunizing mice with a peptide fragment that encompassed the N-terminal half of Aβ (Aβ1–24).[58],[59]

## 2AT-L, covalently stabilized triangular trimer composed of three Aβ17-36 β-hairpin peptides (2AM-LCC) (complex)
[1]
  stoichiometry N (copies of 2AT-L): 4
[2]
  stoichiometry N (copies of 2AT-L): 4

## Aβ42: 42-amino-acid alloform of Aβ
[3]
  time at which ThT-reactive aggregates begin to form: 1 h
  time at which ThT-reactive aggregates plateau: 1.75 h
SDS-PAGE
  predominant oligomers on SDS-PAGE: migrate at a molecular weight consistent with a trimer and tetramer

## full-length Aβ: full-length β-amyloid peptide
cells
  ATP depletion by full-length Aβ: ATP depletion
  LDH release by full-length Aβ: promotes LDH release
  caspase-3/7 activation by full-length Aβ: caspase-3/7 activation

B1: Lecanemab: anti-Aβ antibody drug (antibody, chains of the INN, looked up, V domains shown)
VH: EVQLVESGGGLVQPGGSLRLSCSASGFTFSSFGMHWVRQAPGKGLEWVAYISSGSSTIYYGDTVKGRFTISRDNAKNSLFLQMSSLRAEDTAVYYCAREGGYYYGRSYYTMDYWGQGTTVTVSS
VL: DVVMTQSPLSLPVTPGAPASISCRSSQSIVHSNGNTYLEWYLQKPGQSPKLLIYKVSNRFSGVPDRFSGSGSGTDFTLRISRVEAEDVGIYYCFQGSHVPPTFGPGTKLEIK
[4]
  Aβ protofibrils in brain and cerebrospinal fluid: reduced Aβ protofibrils in the brain and cerebrospinal fluid
Aβ and its aggregates
  target selectivity of Lecanemab: selectively targets Aβ protofibrils

B2: Donanemab: anti-Aβ antibody drug (antibody, chains of the INN, looked up, V domains shown)
VH: QVQLVQSGAEVKKPGSSVKVSCKASGYDFTRYYINWVRQAPGQGLEWMGWINPGSGNTKYNEKFKGRVTITADESTSTAYMELSSLRSEDTAVYYCAREGITVYWGQGTTVTVSS
VL: DIVMTQTPLSLSVTPGQPASISCKSSQSLLYSRGKTYLNWLLQKPGQSPQLLIYAVSKLDSGVPDRFSGSGSGTDFTLKISRVEAEDVGVYYCVQGTHYPFTFGQGTKLEIK
Aβ and its aggregates
  target of Donanemab: targets N-terminally pyroglutamated Aβ that is aggregated in Aβ plaques
